These results are taken from the DeepSol protein solubility set.

The nature of the data set: soluble on expression in E. coli; label from the status in PepcDB or PDB records.
Take “MPRTRVNLQKSEANDRSFTISSLEFCLSQLRKADPNLVKKAIASGDGLTESKNDVSTRLSEAHRYSVQQCLDNSEQLAQLHNQLVHCDNVFERLQATLYSFQDNLGSIGQDMKNLQLQSHHIHQELENRQKVRVELSQFVDDIAVSQTMMKTINDTDANDRGFLEALHELHHKITLILQRGNGDAVAVNDTMPILEGLKLKAVVKVREWLLQKMFQFRKPLSNYQVFQHQLLKCRFFYEFLLHHDLISAKELQDEYIDTISKMFFTYFKAYATRLFKLAMKDVATKEDALGSIDFAKPAGLGAIFSSKQHVVRNKATVFSIGQRHQILSDDFLGALIVPHAVTQNHQSVYLTIELAMARAMSVVLKSCEEQIALSWDAISLHLCICLCDKFTEVLAEREVPEVSDYWNTVTSFLWTRLNLVMSQHYESVKSVDLKKLMHSGSLDARPHFIVRRYAELTSAHLMIAKASGKEMGAKMEAVLENSEDSIEQLLTRMSAMQQTQKNKHVFLINNYDLILSIIDNEESKHTKIYAIVHELEQKSIDDFVEEMLEPHIGYMIKFVNECESLIVQGHTQLLVRYNDKVGTVVANFNAKWRPAVDSINSECIQLFTNFSLGTTILQTIFTKYVQYINRFTKILSHDVFAKNPVCSQLVNVHQVMLEIKRFKPAY”: the “soluble on expression in E. coli” value is “not soluble”.
For “PLGSDGLPLDPRDWTRADVWKWLINMAVSEGLEVTAELPQKFPMNGKALCLMSLDMYLCRVPVGGKMLYRDFRVRLARAMSR” the value was “soluble”; for “SNAMLGGIEAGGTKFVCAVGREDGTIIDRIEFPTKMPDETIEKVIQYFSQFSLQAIGIGSFGPVDNDKTSQTYGTITATPKAGWRHYPFLQTVKNEMKIPVGFSTDVNAAALGEFLFGEAKGLDSCLYITIGTGIGAGAIVEGRLLQGLSHPEMGHIYIRRHPDDVYQGKCPYHGDCFEGLASGPAIEARWGKKAADLSDIAQVWELEGYYIAQALAQYILILAPKKIILGGGVMQQKQVFSYIYQYVPKIMNSYLDFSELSDDISDYIVPPRLGSNAGIIGTLVLAHQALQAEAASGEVRS”, “soluble”; for “MGSDKIHHHHHHMTKLYEPFYRLTIELTECEREIIGSRPFKRLAHLHHYGAAALRTPVTHSRYEHTIGVWSLTAHFFPSDQLLRLVALLHDIGHLPFSHAVEQPLGFNHHLLTERLIESQEVAKILKKHGFIPQDVIRRLNENTPVSNQEKLLSLDHLDSFLRDTTLAGTCSLIPHESLGRLSVRGNGIETDEETALLLASCIVKDHELFLDPFNLAMDALLAEAITLYMADKPLVSMENIPHMTDDEVLTLLRGSWNKKVHAHLKLLFSQQPTLVQTDDESSAKLTVTVRKVYEDRPLIRHGTAKGREMVEKKLAELQELKGRFSFVY”, “not soluble”.
For “MEKKYRKEPVEIPPEIAETAAGGKVPETDVTEQYPQMEEMNGTEAAGEMPQIGPMYPIPQVPAQPTEPAQQMGQMPCMQPIPQMVPVVCCPFLLQMHCPMMPMDYSSMSHPTYQTAPQAMPQTMQAVPQPATPAQYAPGPCGSPYYPQHSGSPCGYGSDMYDQNYNSSMYNPSMYNPMRPGYY” the value was “not soluble”.
The entry for “MELKEELLRGIYGFGFEKPSAIQKSAVAPCTTGKDVTIQSQAGSGKTVISLIDILQGIDCEDAHLQVILLAPQRGMAQRAHEQLKSLGRNLNVNATCLGFDTTAENDKISHVLMGTPKDFLSNIPSDTSRIKMFVLDEADEMLSKGFKDQIYEVFRSMPQDVQVVLLSATMPSEVLDVTNRFMRDPIRILVKKDELTLEGIRQFYINVQKDEWKFNCLCDLLKTSRETQALIFCNTRRRVTQLTEQLMSIPIKVSCFHGNMEHNEREDMVKDFNSRNTRVLVTTDLMARGMNIRKSLIINYDVSGNMENYMLRNGRQGNFGSKGLPISFFTENDISDLKKIENHYSTRIEEMPESFLEYLDEN” is “not soluble”; for “MMQPLYLVGPRGCGKTTIGMALAQATGFRFADTDRWLQSHVQMSVADIVEKEGWGGFRARETAALEAVSAPSTVVATGGGIILTEYNRRYMHRVGVVIYLCAPVSTLVNRLEAEPEADLRPTLTGKPLSEEVREVLEQRDALYRETAHYIIDATKAPAQVVSEIIAALPPSTQRLQGDVYT” it is “not soluble”.
As to “MGSDKIHHHHHHMRFYTKTHKYYCGIDLHARKKYVCILDSEGTVLVHREINCNPESFLRLVAPYREDLVVGVECMFAWYWLADLCRNEKIEFVLGHALYMKAVHGGKAKSDKIDAHKIAVLLRGGMFPLAYVYPPEMRATRDLLRRRNFFVRKRAELMAHIQNTVTQYNLAPLGIDLGVEENRHEVAQLFHDPEVRKIIEIDVAMIDAFDDVINVLEPDIEKTARQHNLHALKLLRSINGVGKVLGLVMLYEIHDINRFPTVQDFSSYCRLVKCAHESAGKKKGVGGSKIGNVHLKWAFSEAAVFFVRHNPQAKILMEKLVKIHGKGKAISILAHKLARAIFYMLKNNVPFDREKFLATA”, the “soluble on expression in E. coli” value was “not soluble”.
The entry for “MKIVYWSGTGNTEKMAELIAKGIIESGKDVNTINVSDVNIDELLNEDILILGCSAMADEVLEESEFEPFIEEISTKISGKKVALFGSYGWGDGKWMRDFEERMNGYGCVVVETPLIVQNEPDEAEQDCIEFGKKIANI” is “soluble”; for “MAEPKSFNIPYRSKLTERIEPGQTLIIRGKTIDESKRFNINLHKDSPDFSGNDVPLHLSIRFDEGKIVYNAYTKGTWGKEERAKNPIKKGDDFDIRIRAHDSKFQVSINHKEVKNFEHRIPLNSVSHLSIDGDVVLNHVQWGGKYYPVPYESGIAADGLVPGKTLVVYGTPEKKAKKFNINLLKKNGDIALHFNPRFDEKANGFMCAKPTPGSVVRNSLVNGEWGNEEREGKNPFERLTAFDLEIRNEEFAFQIFVNGERFASYAHRVDPHDIAGLQIQGDIELTGIQVVNNQPAQE” it is “not soluble”.
The entry for “MGSDKIHHHHHHMVNQNQWRQWGCKVIDIEKAALEHLYQFVDSDAFSQACELILQCKGKVIVMGMGKSGHIGNKISATLASTGTPAFFVHPGEASHGDLGALAKEDIILAISNSGESSEILTLLPVIQRMGVPVIAITGKPESNMAKLAKIHLCIQVPEEACPLGLAPTSSTTATLVMGDALAVALLQAKGFTQDDFALSHPGGSLGRKLLLKVSDVMHQDDRLPCVPHDICITEALYEISKKGLGMTAVVDANQCLVGIFTDGDLRRVIDAEVNLRTTPIEQVMTKNCVTTTAGILAAQALQVMESKNINGLIVVNEQQQPIGALNMLDMVKAGVI” is “not soluble”.
For “MSVTVDDKDVSLNMIRPFEILTLPIPAGVAGKSLVWRFINDYGAISQPLKKNL” the value was “not soluble”.
Turning to “NEKETISYIINTSKNIVIFALSPDKTKASYRVAEFLQRKNYKIFPIYPKEEFILNEKVYRNLDQIEEKIDTLILFRKGEVALEILPKLVEKNIKNLWLQLDISNETAKEECKKLDINFIQNRCIMLEYPHFK”, the “soluble on expression in E. coli” value is “not soluble”.
“MAEVFVGPVAQGYASGEVTVLLASPRSFCAGVERAIETVKRVLDVAEGPVYVRKQIVHNTVVVAELRDRGAVFVEDLDEIPDPPPPGAVVVFSAHGVSPAVRAGADERGLQVVDATCPLVAKVHAEAARFAARGDTVVFIGHAGHEETEGTLGVAPRSTLLVQTPADVAALNLPEGTQLSYLTQTTLALDETADVIDALRARFPTLGQPPSEDICYATTNRQRALQSMVGECDVVLVIGSCNSSNSRRLVELAQRSGTPAYLIDGPDDIEPEWLSSVSTIGVTAGASAPPRLVGQVIDALRGYASITVVERSIATETVRFGLPKQVRAQ”: the “soluble on expression in E. coli” value is given as “not soluble”.
The entry for “MGSSHHHHHHSSGLVPRGSHMSLYREVDAFRVDDERRRVPEKVVNDIEVRIRINGGMEQRFTASPQALEEFATGYLLGEGLVDSVDDIVSIEISDNIIDAEIESGDLDIRRELVMGSDCFGGWRQRVEMVGPVDSDLRVRADDIFLAFKRMVKSAVVWRMTGGTHVAALVTGDEFRVFEDVSRHVAVDKVIGSGAMDGVNFRESFIVYSGRMPADMLIKVVRAGVPIIASNAAPTSSGYDAAQRTGLTMLGFVRGKRFNIYSHPERII” is “soluble”; for “MSLKLLFFDTETTGVKPGSICQLSYILVDTSTKPQKTIGKNIFFTVDEMEPEAERIHGFSLEKLYELSEGMYFEDLYADFINDFLEADFIIGHNVQFDIKFLKHELLGLGEFFEPNNVFCTMKYYKDICKILRPTGDYKNPKLEEVIKHLNITDSEISETANKYFQGSGNYHDARFDTAATYLTVINGIKKGLIPRNYFTKLLEAEGHHHHHH” it is “soluble”.
The entry for “GPGSMSTLKEVNGRLNTQPFVSGFSPSSEDARIFNEMFGSNVNVIQWVARMASYYQAERDEILNAGTEKKATEPAKKAAAPAPAAAAAAEEEDDIDLFGETTEEEKAALEAKKAKDAEKKKAKKEVIAKSSILFDIKAWDDTIDLEALAQKLHAIQRDGLIWGDHKLVPVAFGVKKLQQLIVIEDDKVSGDDLEEMVMGFEDEVQSMDIVAWNKI” is “soluble”; for “MPSTRCAHQMSTKKKAERVDNMIAFLKSAVQAQKEKGAQAEQAPGNAMMTSKLLEIWSVPQSTITEMRLLLTLGADPTPLFKDDFGEKTLADRIDNGSVCEECAEMYERTPIQINRSKKVDGVMALCLDGGGMRGLVSVVCLLYASRRLLGDETLPNLFDWFIGTSTGSMLALSMVNKISISECFFQYWDMKSQIFLRGSTVKRLLGDQVAVQTKNIDKVLGDCFPTQTLQECPTRLTIPALDISTAPARLHVFRNYSFTKPFGAPLNEDQDVLFREAARASSAAPTYFEPFIYGNKVLVDGSFVANYPLNVLFKEYDSFSKHQQPIHLAGVLSIGTGEPALAERKYKSGKSIRAKAMNIGHLSTLILEQVVGQDLTAVEMAQDRCHAHNIPFNRLSPKGISVRIDQIDDSKLMDMIWTTLIYLTENVHEIDQLGEMIYKLKSDPTERKRRSNTVL” it is “not soluble”.
As to “MAGDPMGSGESKANTAETPEVLDVKLTGPEKVNPGESAAYEAAVSYGDEAVTDADEVEFEVWKEGEKDASQMFKVKQEKGVYRLETTFKEDGVYTVQSHVTAKKQHSMPTLKVQVGDADAASNQSEEEHSHHHLEHHHHHH”, the “soluble on expression in E. coli” value is listed as “soluble”.
For “MALFGKKSSDSSKSVAVPKAFTIQIDPSKFNLATKPSGPVHEQLETLKQKLTKLSSNVENNLMLVIRASTKKDKALASSAFEFDERYIQKGKFEVEYLTLAYLNFQQLDEADRKTVAHARMILKELERIAQFCLNIADKTEYIQLANIQVLHKDEYDLKLMGDDTAEMIKKAVEAFVSGNSKHATETLDMMKKIDDLYQKAVAKLKAEVNDSNIINSTGILSVVEHVHTCAEISCAIARHFC” the value was “soluble”; for “MNRRDFIKAASGGALLLGAAPSVSHAAAENRPPIPGSLGMLYDSTLCVGCQACVTKCQDINFPARNPEGEQTWSNNDKLSPYTNNIIQVWRSGTGVNKDQEENGYAYIKKQCMHCVDPNCVSVCPVSALKKDPKTGIVHYDKDVCTGCRYCMVACPYNVPKYDYNNPFGALHKCELCNQKGVERLDKGGLPGCVEVCPAGAVIFGTREELMAEAKKRLALKPGSEYHYPRQTLKTDDTYLHTVPKYYPHLYGEKEGGGTQVLVLTGVPYEDLDLPKLDDLSTGARSEHVQHTLYKGMILPLAALAGLTVLVRRNSKNDHHDGGDDHES”, “not soluble”; for “MEQELISKKELLELTGISYGQLYRWKRKKLIPEEWFIRKSTFTGQETFFPKEKILARIEKIKELKDELSLDELAGMFAPDPAAVVLTKEEVIKRHIVSNVALQWLSDQLGDRQDVSFGQLLSLYIVDRLLRSGEINIEEGKNIWMMFESHYPKLQGKSCELVVLRKMGVTVCLLVEEAAGLYVEEGAKLVARLHVPTYIEELKLTISEG”, “not soluble”.
For “HPECKKSVEDVNNDLKKFVSINGKKTVTEFHRELGKIMWNNVGMARSEESCKEALKVIPQIREEFWKNVKVSGSGAEFNQQLENAGRVADFLEFAELMTLDALHRNESCGGHFRVEHQMPD” the value was “not soluble”.
